Laboratory results: the DeepSol protein solubility set

Experiment: soluble on expression in E. coli; label from the status in PepcDB or PDB records

Soluble on expression in E. coli, not soluble:
MGSDKIHHHHHHMREIMSIITLPRKIYQQRDIIDNIRETLQLKEPILLVSDRNIMKLYGQRIKNALDGSDYRVIEDVRPEPEVSDIENTYRSLSGFQPKTIIAFGGGSVIDFAKSIDVKISYPDRSLEEVNPFEPLNLKADLVAIPTTSGTGSDVSFGIVITDQGRKLALGNFDLVPYVSVLDSSLVPSDPSIIRPTGVDALVHSFEALTANTSSIFTDALAEKAIETIFGILIDPMKGEEDARENMHLAATMAGISFTNSGTALAHALGHSFGSTHHVVHGTCVGLFLPYVIEFNSSDENASEKYARIARRLGYKDAISALRDLYRRIGQPLTVAEIGIPKDAYMKSLDSMVEKALADSELAFNPVIAGDEDVRSIYIKAYGD
MGSDKIHHHHHHMREQLDQVGSGGVTGATGLLGNNLVRELVARGYTVKGLVRSKAKGEQQFNNLPGVELVVGDMAEVDAFAASLQGCDTVFHTASFFRDNYKGGSHWKELEQINVSGTRRLLEQAYGAGIRRFIHTSSIAVLNGAPGTSIEENCLRADADADDYYRSKILADRVVLSFLESHPQMHACMVLPGWMWGPGDVGPTSSGQLVNDVVQGKLPGLIPGSFSIVDARDVALAHIAAARHGRRGERYLAAGRHMTMRELMPVLGRMAGVKTPARQIPLPFLYTLAAVQEIYARLTGRPILLSMATLRLLVREQDRTRFDHRKSEQELGLSFRALELTIADTVAWYRDHGWFEKGSRL
MGSDKIHHHHHHMREVHVNDIKEAVKEAIIEANCVLPREVRVAFQEALKREESPIGREVLTQILENAEIAQYYYMPYCQDTGVDVIFVFLGQDVHVVGGSLEDAINQGVREATEEGYLRASMVWDPVFERKNTKDNTPAIIHYEVVPGDRVKIVVAPKGAGSENTSRLAMLKPADGWEGVKKFILETVKFAGPNACPPFTVGVGIGGNFEYCAYLAKKALLRPVGKRHENPLIAKVEEELLEEINKIGWGPMGFGGTVTAVDVKVEMYPCHIASLPVAVNIQCHANRHAERVV
MGSDKIHHHHHHMRGSSNIPLDWDKLRIFHAAAEAGSFTHAADKLHLSQSAISRQVSALEQDVGVKLFHRHARGLILTEQGELLYRTAHDVLLKLETVKMQLTETTEKPSGKLRVTTTVGLGQGWLTDKVQEFLQLYPDMSIQLILDNEELDVNMRHADCAIRLRQPQQSDLIQRKLFTVHMHVYAAPSYINRYGEPQTIEDLDNHRIISFGEPAPNYLLDVNWLEVAGRSSDNRRIPHLQINSQTSIKRACLLGIGVACMPDYIVGRDPGLIQLPINAEVPSFDTYFCYPDEMKNAAKLKVFRDFIVSKARNWNF
MGSDKIHHHHHHMRIIEASAVHAAVRQMILAANRVLGDDVYAALKSSMESETSASGREVLRQLLENADLAASGGLALCQDTGAAVFFVEMGEDVRLGGGSLQHVLNSAMAQAYEEGCLRKSMCHPLTRCNTGDNRPAIVHTELVEGDRLTIRYMAKGGGSENMSRCTMLTPAQGWQGIKEFVVRRMAEAGPNPCPPTIVGVGIGGTFDLAPALAKRALFRRLDDVHPDAEVAAMETELLDALNALGIGPMGLGGRTTCLAVKIALHPCHIASLPVAVNVQCHSARHREVIL
MGSDKIHHHHHHMRILQIGKFYPIRGGIEKVMYDITMGLSQRQVYCDMLCASAEKQKPENLLLNDYARILCVSTWKKVAATMLSPAMIFRLRKINKEYDIIHIHHPDPMACLALFLSGYKGPVVLHWHSDILKQKMLLKLYSPLQNWLLRRAKVIVGTTPVYVQESPFLENIQRKVISVPIGIDEMKPVPGRVAQIKERYAGKKIIFSLGRLVEYKGYEYLIKASQKLNDDYIILIGGKGPLQEYLQSLIDELGVRKKVKLLGFIDDKDLPDYFGACDLFCLSSIWKTEAFGIVQIEAMSCGKPVIAMNIPESGVSWVNINRFSGINVKPEDADALAEAITAVLTDECLYEELARGARRRYETMFTKELMTELCLNLYSGVLDSSETDYPANKKE
MGSDKIHHHHHHMRIRPDRNRGRSAGINPSGRFEPVSRHVFDDGWSSLEELPPFKTEVQVEKPRTIITRNESPDISFDRSINPYRGCEHGCVYCFARPTHAFMGLSPGLDFETKLFAKPDAARLLDKELSKEGYQPRTIAIGTNTDPYQPIEKQYRIMREILEVLEARGHPVGIVTKSALVTRDIDILSRMAERGLAKVALSVTTLDRMLARTMEPRASTPTKRLEAIRQLSDAGIPTSVMVAPIIPGLTDQEMERILDSAYAAGAREAGYVVLRLPLEVSPIFKDWLLRHYPDRYRHVMSLIRSMRDGKDYDSEWGKRMKGAGPYAWQIGRRFEITAKRLGLNIERRTLRTDQFVAAGKDQEQLMLL
MGSDKIHHHHHHMRISANFDGGNIETISLANPDDIQLAIRPDAGGEFYQWFNFRFEATIGKTYTLNILNAGGASYLKGWEDYQAVASYDRQTWFRLPTEYKDGKLSISVELDCEAIQIAYFTPYSYERHLDLISAVQLHPLVSTEHLGLTLDGRDMTLVKVGDDDPSKKSIWITARQHPGETMAEWLVEGLLNQLLDNDCPTSKALLDKANFYIVPNMNPDGSVRGHLRTNAVGANLNREWQTPSLERSPEVYYVVNKMHETGVDLFYDVHGDEGLPYVFLAGCEGIPNYSDKLASLQQDFVAALSLASADFQTEFGYDKDEPGKANLTVACNWVANTFKCLSNTLEMPFKDNANLADPFQGWSPERSVYFGEASLIAMRAVIDKIGQ
MGSDKIHHHHHHMRKDGHMQLQTIKVQGFKSIRELEFSLRPLNILIGANGSGKSNILGVFAFLRAMVERHLQMYVARAGGADRILHFGQKNTDSLQIELWFTKKNRRARGNIIANGYRCALVPAVGDRFVFAEERAFFHDRRYEKPVETLLGSGHEESLLPASYGRGIPADVFEAMQSWIVYHFHDTSDSARVKQTGDIDDNYWLRQDASNLTAYLYYIQQQAPDHYRNIVDVIRMVAPFFDDFVLRPSPFNPNKIKLEWRERGSDTYFDAYALSDGTLRFICLATLLLQPARKFPAIILLDEPEMGLHPYAIHVLAELLHSAATQTQVIVATQSVTLVNQFEPEDIVVVERQDGQPVCRRLTMEETETWLDGYGLGDLWEKNILGGRPLP
MGSDKIHHHHHHMRKSRDANPFKAMPNILYPDELMDKAYNRSEKIAGELRTTTRGLSTPKSKIIEDNKIRTTASVISDNLLKIVEKTPSIDNLDPFYREILEIMVGSDEFKKSLAAVQWASEIVKKLGTQYSRKVKKAPSPQATSIVRKEFIGRVSSVLKQIYPNMAFLGVARNKLKNIPTVKNLPSVVIAGYPNVGKSTLLRTLTDAEPEVNSYPFTTKGLNIGYTEEGIQIIDTPGVLDRPIYERNDIELHAVVAINYLSDMILFVIDPTEFCGFTMEEQFNLLQEIRKTFNVPILVALTKMDVDEIEGLDKLEEDLGEYEVLKVSSFKKEGIADLRERLLDILDEQGLMGLLEE
MGSDKIHHHHHHMRLKELLPNFLIVHQEVPEDPIAFKSTDKRENENKEITIPELIDTKVPELADGATDTLYGLLVNGHLQTAYGSFRHFDNIYKVQYKRMIIKYPHGGEGTVDFAVNGRSTKRRKVEKEYVPTSQPVFNGNLKRRYSYYSPDDPKLNSDDAKPMLIILHGLTGGSRESYVRAIVHEITTKYDFEACVFNARGCCYSAITTPLLYNGGWTNDIRYCVNDLRKRFPNRKFYMMGFSLGASIMTNYLGEESDRTKIECAISVSNPFDLYNSAYFINSTPMGSRFYSPALGHNLLRMVRNHLSTLEENPDFKDVIEKHLKKIRTVRQFDNLLTGPMFGYKNAEEYYKNASSYKRIPGIRTPFIALHAQDDPIVGGDLPIDQIKSNPYTLLLETSTGGHVGWFKDRSGRRWYAEPLCRFLKIFHDEITVKGLKPDLENVQLPDPNCEPIATTFRAN
MGSDKIHHHHHHMRLPPLNALRAFEAAARHNGYIAAAEELCVTRGAVSRHIKLLEDHLGVTLFHRNHRGVELTAAGRQLLPVLTETFARIAREAEQISAMTRDVRIICPPALSIRWLFPRLEEFQAAHPDIRVRLTTEFYGAKGFDDTEHDLGVSVEHVSGRGAGIASMPLFPMVLSPACSPALLRQRPLSAPADLARMTLLHESPQRRDWAHWLSSFGVRGVDAGSGPTFPNLDMAARAATMGAGVVMADLALCQEELRAGTLVLPFPEMTCTTPQGGYVLLGARARWDEPHLRAFRDWAASSSADLVACMGA
MGSDKIHHHHHHMRLTTKGRFAVTAMIDLALREHSGPVALAAISSRQQISLSYLEQLFGKLRRHELVESTRGPGGGYSLGRKAEEITVADIIVAVDEPIDATGCGGKENCMGEDSGRCMTHDLWASLNTKMIEFLDSISLRKLVDDQLAKGVSIEEAPVKRAISSQPVVKPIKITAPNSVFALGSSFSK
MGSDKIHHHHHHMRLYTRTGDKGKTSVIGGRLAKDDTRVVAYGTTDELNSFVGLAITQLDENTFADIRGELFKIQHELFDCGGDLAMLKVKEDRPYKAKQEIVDFLEQRIDAYIKEAPELERFILPGGSEAAASLHVCRTIARRAERYVVRLQQEGEINPIVLKYLNRLSDYFFAVARVVNSRLQVPDVEYERSAIVFREGKRKEDKK
MGSDKIHHHHHHMRNLISETKSLYKLIDFKDVQIFGDAANYTCILFLKIYKNDVFSYIFPKSTDTFTIQSVSNVDTFQEYKLPLPKPDHPWILSENKVSELIRKLSRKGIPLEIISKNIFQSLTTSADGIYFVQVESETRDTAKIRNIKNNLEFAVEKTILRKLLKGKDIRRCSVDWKGSYVVYPYLVKDDKASLITLSEIKDRYPLAYEYFKHYELQLKTREDNKLKDDENWHQYIYRKNLEKFEQKKIVTQVLASKNTFAIDLNGEFYFVGGDNAGGYGIVLNDNNQNMYYFVLALLNSNVLEFYLKNISTPFRGGYFSYGKRFIDKLPLLIPKDSRFDSVSSLSKEQMNISKKMRNFPNTDERDLLEREYDKRCQELNQMIYEIYGLNKLEITLLDDRLCQ
MGSDKIHHHHHHMRPLIFAYANAAASIAADSWNLVMGEDNPFCRHEYLLSLEQSLSACDATGWQACHLCVFDASGMGLTQEQNTDGIVSTRDAVHFIDLPLLAVMPLYQKSHSYGEYVFDWAWAQAYEHHGLAYYPKLLNAIPFTPVLGRRIGLSPRLSADEAQQLSALVFTCLNRQLMDAHASISSWHCLFVSPSQQSLFEPPLSVKQQTLQHLPHNPSLRRLSTQFHWYNRGYTSFEAFLAALNSRKRKNIVKERAQLQTHGLRFEFVAGNVITSQQWQRFIECYQLTYLKRSGHRGYLTPVFFQMIAERLAEQIVLLVVSDATGEMIAGALYFTGRNELGQRCLFGRYWGSTLELEGLHFEACYYQGIEYCIAQDIEVFDAGAQGEHKVLRGFEPVAIYSYHNIAHPEFKLAIAHFTEEEAVQMEVYMQQMREVLPYKKAP
MGSDKIHHHHHHMRSIVQNKVEECLEILKWDKTKWIDFWRELRRKFGPIVPNYERKLELNDEKIEKILREIERRELDRFKWDWLDVSRNKKIECAESLSEREDFLDLKREDFSVFLMSLLGLSDWVVVDGEKEKIVVMDVFSLWRKGLLRELSLATLHAVIEFRKGKEIGNYGGKKEYFDSLLKEIEKILKRGKEALGDLCEFLRNHVSYYDWVGFYFVEDGKLKLGPFVGEPTEHVEIPFGVGICGQAAEREETFVVQDVSKETNYLSCSPKTKAEIVVPIFKDGKIIGELDIDSYSPSPFSEEDRAFLEKVCELVSKVV
